Results from patent US11110182B2, “Multifunctional RNA nanoparticles and methods for treating cancer and therapeutic resistant cancer” (University of Cincinnati, priority 2016, dated 2021).

What was measured:
Assay type in all cases: cell-based, human
BT474 cells = experiment: MTT assay, BT474 cells
Procedure: FIG. 3A) BT474 cells were incubated with 10 μg/mL control and pRNA-HER2apt-siMED1 nanoparticles for 48 h, and MED1 mRNA level was determined by real-time PCR. FIG. 3B) BT474 cells were incubated directly with (as indicated by -) or transfected with indicated pRNAs using lipofectamine 2000. At 48 h post treatment, MED1 protein levels were determined by western blotting. FIG. 3C) BT474 cells were treated with 10 μg/mL pRNA nanoparticles for 48 h and assayed for cell viability by MTT assay. FIG. 3D) Cells were treated as above and seeded for migration, and FIG. 3E) invasion transwell assays. Scale bar: 50 μm. FIG. 3F) After pRNA treatment for 48 h, the mRNA levels of ERα target genes TFF-1, FIG. 3G) c-Myc, and FIG. 3H) cyclin D1 in BT474 cells were determined by real-time PCR.
FIG. 4A) BT474 cells were treated with pRNA nanoparticles in combination with vehicle or 1 μM 4-hydroxy-tamoxifen (4-OHT) as indicated for 48 h, and assayed for cell viability by MTT assay. […] FIG. 4E) The number of mammospheres was counted, and FIG. 4F) the mammosphere size was calculated. […]
FIG. 9A) BT474 cells were treated with different concentrations of pRNA nanoparticles as indicated for 48 h. After that, MED1 protein level was determined by western blots, and FIG. 9B) the cell viability was determined by MTT assay. […]

MED1 = MED1 protein level by western blots in MCF-7/TAM cells; conditions: 10 μg/mL, 48 h
Procedure: (§1) FIGS. 10A-10D. Evidence that pRNA-HER2apt-siMED1 nanoparticles silenced MED1 expression and sensitized two other HER2+ breast cancer cells to tamoxifen treatment. FIG. 10A) Two HER2-overexpressing breast cancer cell lines MCF7/TAM and FIG. 10B) MCF7/HER2, were treated with 10 μg/mL pRNA-HER2apt-siMED1 nanoparticles or scramble control for 48 h, and then MED1 protein level was determined using western blots. FIG. 10C) MCF7/TAM and FIG. 10D) MCF7/HER2 cells were treated with 10 μg/mL pRNA nanoparticles and/or 1 μM tamoxifen (TAM) as indicated for 48 h, and then cell growth was determined using an MTT assay.
Next, the ability of pRNA-HER2apt-siMED1 nanoparticles to silence the expression of MED1 in BT474 and MDA-MB-231 human breast cancer cells was examined. Using real-time PCR analyses, a significant depletion of nearly 70% of MED1 mRNA in BT474 cells after pRNA-HER2apt-siMED1 but not pRNA-HER2apt^mut-siMED1 treatment was found (FIG. 3A).

MCF-7/TAM cells = experiment: MTT assay, MCF-7/TAM cells; conditions: 10 μg/mL pRNA and 1 μM tamoxifen, 48 h
Procedure: as §1
Since MED1 has recently been reported to play key roles in tamoxifen resistance of human breast cancer, the combinational effects of pRNA-HER2apt-siMED1 nanoparticles with tamoxifen on the growth and metastatic potential of BT474 cells was examined. […] The combinational effect of pRNA-HER2apt-siMED1 nanoparticles with tamoxifen treatment on two other HER2-overexpressing breast cancer cells MCF-7/HER2 and MCF-7/TAM were also confirmed (FIGS. 10C-D).

B1: pRNA-HER2apt-siMED1: 3-WJ pRNA nanoparticle bearing a HER2-targeting RNA aptamer and two different MED1 siRNAs; strands p1 SEQ ID NO: 3, p2 SEQ ID NO: 4 (nucleic acid)
chain 1: GGACAGUGAAAGUGAGUCAAAGGAUCAAUCAUGGCCAAAGAUGUUACUUUGAGAGCCUU
chain 2: GGCUCUCAAAGUAACAUCUAAGGCCAUGUGUAUGUGGGGGGAGGACGAUGCGGUCUGCUGUGCUUGAUAUGCCCCAGACGACUCGCCCCCCACAUACUUUGUUGAUCCAAUGACUCACUUUCACUGUCCUU
modifications: 2'-F modification; third strand may lack entry; pRNA-HER2apt-siMED1, p1; pRNA-HER2apt-siMED1, p2
cell growth (MTT) (BT474 cells; BT474, 48 h, nanoparticles alone): dose-dependently inhibited | effect on tamoxifen inhibition of cell growth (BT474 cells; BT474, in combination with 1 μM 4-hydroxy-tamoxifen, 48 h): significantly enhanced the inhibitory effects of tamoxifen | MED1 silencing (MED1): confirmed | combinational effect with tamoxifen on cell growth (MCF-7/TAM cells): confirmed
